Experimental data taken from publication PMC3792407, “Overexpression of chloroplast NADPH-dependent thioredoxin reductase in Arabidopsis enhances leaf growth and elucidates in vivo function of reductase and thioredoxin domains” (Frontiers in Plant Science, 2013).
Substitutions are numbered along the chain they refer to. Names may count otherwise.

B1: NADPH-dependent thioredoxin reductase C (NTRC), endogenous in wild-type Arabidopsis leaves (enzyme, UniProt O22229 68-529, looked up)
chain: ATANSPSSSSSGGEIIENVVIIGSGPAGYTAAIYAARANLKPVVFEGYQMGGVPGGQLMTTTEVENFPGFPDGITGPDLMEKMRKQAERWGAELYPEDVESLSVTTAPFTVQTSERKVKCHSIIYATGATARRLRLPREEEFWSRGISACAICDGASPLFKGQVLAVVGGGDTATEEALYLTKYARHVHLLVRRDQLRASKAMQDRVINNPNITVHYNTETVDVLSNTKGQMSGILLRRLDTGEETELEAKGLFYGIGHSPNSQLLEGQVELDSSGYVLVREGTSNTSVEGVFAAGDVQDHEWRQAVTAAGSGCIAALSAERYLTSNNLLVEFHQPQTEEAKKEFTQRDVQEKFDITLTKHKGQYALRKLYHESPRVILVLYTSPTCGPCRTLKPILNKVVDEYNHDVHFVEIDIEEDQEIAEAAGIMGTPCVQFFKNKEMLRTISGVKMKKEYREFIEANK
notes: NTRC of Arabidopsis thaliana (At2g41680), mature chloroplast protein without the putative transit peptide of 67 amino acids (ChloroP); calculated mass of mature NTRC 50890 Da, band of about 50 kDa; printed residue numbers count on the precursor with the transit peptide; The cleavage site of the transit peptide is only a ChloroP prediction (67 amino acids); also called plastid-localized …
B2: full-length NTRC with C454S/C457S in the TRXd active site (OE-SGPS) (enzyme, Arabidopsis thaliana, UniProt O22229 68-529, looked up)
chain: B1 chain with C387S, C390S
notes: signal peptide in the construct (chloroplast transit peptide, putative 67 amino acids, ChloroP); full-length NTRC of Arabidopsis thaliana (At2g41680) with both redox cysteines of the TRXd motif CGPC changed to serine; in the leaf extract it runs as the mature protein of about 50 kDa; also called NTRC-SGPS; source: transgenic Arabidopsis (ntrc knockout background, CaMV 35S promoter, pGWR8), …
B3: full-length NTRC with C217S/C220S in the NTRd active site (OE-SAIS) (enzyme, Arabidopsis thaliana, UniProt O22229 68-529, looked up)
chain: B1 chain with C150S, C153S
notes: signal peptide in the construct (chloroplast transit peptide, putative 67 amino acids, ChloroP); full-length NTRC of Arabidopsis thaliana (At2g41680) with both redox cysteines of the NTRd motif CAIC changed to serine; in the leaf extract it runs as the mature protein of about 50 kDa; source: transgenic Arabidopsis (ntrc knockout background, CaMV 35S promoter, pGWR8), soluble leaf extract

Target: the molecule itself
Experiment: SDS-PAGE of unheated samples with Western blot; soluble leaf proteins extracted in 50 mM HEPES, 5 mM NaCl, 10 mM MgCl2 with or without 2 mM DTT; solubilised in SDS buffer with or without mercaptoethanol and kept on ice (0°C), not heated; 10% acrylamide gel; blot with anti-NTRC or anti-NTRB antibody

Row | Protein | stoichiometry N
1 | B1 | 2
2 | B2 | 2
3 | B3 | 2
